Here are results for 2 molecules from paper PMC9438503, “The Haemophilus influenzae HipBA toxin–antitoxin system adopts an unusual three-component regulatory mechanism” (IUCrJ, 2022).

In test [1] the target is HipB antitoxin from Haemophilus influenzae (HI0666.1) (H. influenzae (KW20 strain, ATCC 51907)) (UniProt P44034). The test is described as follows: cross-linking; chemical cross-linking of H. influenzae HipB with DMA and DMS cross-linkers, SDS-PAGE.
In test [2] the target is T1, HipA^C, C-terminal component of the split HipA toxin from Haemophilus influenzae (HI0665), His-tagged (H. influenzae (KW20 strain, ATCC 51907), UniProt P44033 1-343).
T1 construct: also called His-tagged HipA^C; not shown: His6, N-terminal, kept
T1 sequence: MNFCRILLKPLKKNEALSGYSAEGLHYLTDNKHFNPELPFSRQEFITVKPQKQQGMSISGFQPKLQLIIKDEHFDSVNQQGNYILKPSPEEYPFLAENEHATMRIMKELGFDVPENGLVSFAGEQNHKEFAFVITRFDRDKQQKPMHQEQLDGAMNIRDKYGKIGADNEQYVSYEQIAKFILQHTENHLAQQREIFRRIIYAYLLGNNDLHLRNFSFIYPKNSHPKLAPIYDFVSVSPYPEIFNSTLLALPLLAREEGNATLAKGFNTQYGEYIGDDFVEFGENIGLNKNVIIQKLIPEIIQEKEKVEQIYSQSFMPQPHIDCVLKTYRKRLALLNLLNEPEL
The test is described as follows: pull-down. Conditions: partners not purified.

As a reminder, the stoichiometry N is a count of units in the complex or per binding partner. On to “HipB antitoxin from Haemophilus influenzae (HI0666.1) (from UniProt P44034 1-106) (natural protein)”, for which the stoichiometry N in test [1] stood at 2.

B1: HipA^N, N-terminal component of the split HipA toxin from Haemophilus influenzae (HI0666) (natural protein)
chain: MRDLVRSGKVFLYGEFIGLLREDHRGFHFSYNPDYQGIPLSLSFPIEQSPFHSDTLFPYFASLVPEGWLKHKYALHQRIDESDMFRFLLNNGENMLGAVQIQEEKQ
B1: the binding result in test [2] is “binds”.
